Measurements from US20210032299A1 (Eli Lilly, published 2021).
Starred links: 1 amine or outer side, 2 acyl side, 3 side chain; linkers in the order of their positions; H or OH if unused. Non-standard residues stand in square brackets, D forms with d. Groups on a side chain read outwards from the residue. No end group written: not given here. *: point of attachment. C20 diacid = O=C(O)CCCCCCCCCCCCCCCCCCC(=O)*; C18 diacid = O=C(O)CCCCCCCCCCCCCCCCC(=O)*; γGlu = O=C(O)[C@H](CCC(=O)[*:2])N[*:1]; αMeL = CC(C)C[C@](C)(N)C(=O)O; AEEA = NCCOCCOCC(=O)O; Aib = CC(C)(N)C(=O)O

T1: human glucose-dependent insulinotropic polypeptide (GIP) receptor (human, UniProt P48546 22-466)
T1 construct: whole, on cells; Assayed as crude membranes of stably transfected CHO cells; also called hGIPR; human GIP receptor
T1 sequence (looked up): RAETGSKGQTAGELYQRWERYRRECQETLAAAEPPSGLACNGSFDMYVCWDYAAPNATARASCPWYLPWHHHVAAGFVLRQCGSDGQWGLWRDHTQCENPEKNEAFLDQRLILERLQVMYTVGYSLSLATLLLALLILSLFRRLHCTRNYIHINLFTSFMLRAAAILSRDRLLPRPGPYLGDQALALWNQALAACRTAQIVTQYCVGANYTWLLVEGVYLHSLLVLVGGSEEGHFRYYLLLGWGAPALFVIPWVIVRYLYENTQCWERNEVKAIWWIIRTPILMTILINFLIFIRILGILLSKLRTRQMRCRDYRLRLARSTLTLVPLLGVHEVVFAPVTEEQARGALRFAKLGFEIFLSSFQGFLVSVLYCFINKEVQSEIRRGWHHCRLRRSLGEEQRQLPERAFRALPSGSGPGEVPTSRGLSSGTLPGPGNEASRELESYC


Target: T1, human glucose-dependent insulinotropic …
Assay: SPA, displacement of [125I]-GIP from hGIPR membranes, 0.1% bacitracin
Procedure: The binding buffer contains 25 mM HEPES, pH 7.4, 2.5 mM CaCl₂, 1 mM MgCl₂, 0.1% (w/v) bacitracin, 0.003% (w/v) TWEEN®-20, and Roche Complete™ Protease Inhibitors without EDTA. […] Plates are sealed and mixed on a plate shaker (setting 6) for 1 minute and read with a PerkinElmer Trilux MicroBeta® scintillation counter after 2.5 to 12 hours of incubation/settling time at room temperature.
Data are analyzed using four-parameter (curve maximum, curve minimum, […], Hill slope) nonlinear regression routines (Genedata Screener, version 12.0.4, Genedata AG, Basal, Switzerland). […] Values for Kᵢ are reported as the geometric mean, with error expressed as the standard error of the mean (SEM) and n is equal to the number of independent replicates (determined in assays performed on different days). Geometric Means are calculated as follows: […]

Binder	Ki [pM]
Y[dA]EGTFISDYSILLDKIAQ[Aib]DFVNWK([AEEA-AEEA-γGlu-C18 diacid])LAQGPSSGAPPPS-NH2 (N-terminus assumed; SMILES CC[C@H](C)[C@H](NC(=O)[C@H](CCCCN)NC(=O)[C@H](CC(=O)O)NC(=O)[C@H](CC(C)C)NC(=O)[C@H](CC(C)C)NC(=O)[C@@H](NC(=O)[C@H](CO)NC(=O)[C@H](Cc1ccc(O)cc1)NC(=O)[C@H](CC(=O)O)NC(=O)[C@H](CO)NC(=O)[C@@H](NC(=O)[C@H](Cc1ccccc1)NC(=O)[C@@H](NC(=O)CNC(=O)[C@H](CCC(=O)O)NC(=O)[C@@H](C)NC(=O)[C@@H](N)Cc1ccc(O)cc1)[C@@H](C)O)[C@@H](C)CC)[C@@H](C)CC)C(=O)N[C@@H](C)C(=O)N[C@@H](CCC(N)=O)C(=O)NC(C)(C)C(=O)N[C@@H](CC(=O)O)C(=O)N[C@@H](Cc1ccccc1)C(=O)N[C@H](C(=O)N[C@@H](CC(N)=O)C(=O)N[C@@H](Cc1c[nH]c2ccccc12)C(=O)N[C@@H](CCCCNC(=O)COCCOCCNC(=O)COCCOCCNC(=O)CC[C@H](NC(=O)CCCCCCCCCCCCCCCCC(=O)O)C(=O)O)C(=O)N[C@@H](CC(C)C)C(=O)N[C@@H](C)C(=O)N[C@@H](CCC(N)=O)C(=O)NCC(=O)N1CCC[C@H]1C(=O)N[C@@H](CO)C(=O)N[C@@H](CO)C(=O)NCC(=O)N[C@@H](C)C(=O)N1CCC[C@H]1C(=O)N1CCC[C@H]1C(=O)N1CCC[C@H]1C(=O)N[C@@H](CO)C(N)=O)C(C)C) [Example 93]	43
Y[dA]EGTFISDYSILLDKK([AEEA-AEEA-γGlu-C20 diacid])HQQEFVNWLLAQGPSSGAPPPS-NH2 (N-terminus assumed; SMILES CC[C@H](C)[C@H](NC(=O)[C@H](CO)NC(=O)[C@H](Cc1ccc(O)cc1)NC(=O)[C@H](CC(=O)O)NC(=O)[C@H](CO)NC(=O)[C@@H](NC(=O)[C@H](Cc1ccccc1)NC(=O)[C@@H](NC(=O)CNC(=O)[C@H](CCC(=O)O)NC(=O)[C@@H](C)NC(=O)[C@@H](N)Cc1ccc(O)cc1)[C@@H](C)O)[C@@H](C)CC)C(=O)N[C@@H](CC(C)C)C(=O)N[C@@H](CC(C)C)C(=O)N[C@@H](CC(=O)O)C(=O)N[C@@H](CCCCN)C(=O)N[C@@H](CCCCNC(=O)COCCOCCNC(=O)COCCOCCNC(=O)CC[C@H](NC(=O)CCCCCCCCCCCCCCCCCCC(=O)O)C(=O)O)C(=O)N[C@@H](Cc1c[nH]cn1)C(=O)N[C@@H](CCC(N)=O)C(=O)N[C@@H](CCC(N)=O)C(=O)N[C@@H](CCC(=O)O)C(=O)N[C@@H](Cc1ccccc1)C(=O)N[C@H](C(=O)N[C@@H](CC(N)=O)C(=O)N[C@@H](Cc1c[nH]c2ccccc12)C(=O)N[C@@H](CC(C)C)C(=O)N[C@@H](CC(C)C)C(=O)N[C@@H](C)C(=O)N[C@@H](CCC(N)=O)C(=O)NCC(=O)N1CCC[C@H]1C(=O)N[C@@H](CO)C(=O)N[C@@H](CO)C(=O)NCC(=O)N[C@@H](C)C(=O)N1CCC[C@H]1C(=O)N1CCC[C@H]1C(=O)N1CCC[C@H]1C(=O)N[C@@H](CO)C(N)=O)C(C)C) [Example 13]	237
Y[dA]EGTFISDYSILLDKK([AEEA-AEEA-γGlu-C20 diacid])HQQDFVEWLLAQGPSSGAPPPS-NH2 (N-terminus assumed; SMILES CC[C@H](C)[C@H](NC(=O)[C@H](CO)NC(=O)[C@H](Cc1ccc(O)cc1)NC(=O)[C@H](CC(=O)O)NC(=O)[C@H](CO)NC(=O)[C@@H](NC(=O)[C@H](Cc1ccccc1)NC(=O)[C@@H](NC(=O)CNC(=O)[C@H](CCC(=O)O)NC(=O)[C@@H](C)NC(=O)[C@@H](N)Cc1ccc(O)cc1)[C@@H](C)O)[C@@H](C)CC)C(=O)N[C@@H](CC(C)C)C(=O)N[C@@H](CC(C)C)C(=O)N[C@@H](CC(=O)O)C(=O)N[C@@H](CCCCN)C(=O)N[C@@H](CCCCNC(=O)COCCOCCNC(=O)COCCOCCNC(=O)CC[C@H](NC(=O)CCCCCCCCCCCCCCCCCCC(=O)O)C(=O)O)C(=O)N[C@@H](Cc1c[nH]cn1)C(=O)N[C@@H](CCC(N)=O)C(=O)N[C@@H](CCC(N)=O)C(=O)N[C@@H](CC(=O)O)C(=O)N[C@@H](Cc1ccccc1)C(=O)N[C@H](C(=O)N[C@@H](CCC(=O)O)C(=O)N[C@@H](Cc1c[nH]c2ccccc12)C(=O)N[C@@H](CC(C)C)C(=O)N[C@@H](CC(C)C)C(=O)N[C@@H](C)C(=O)N[C@@H](CCC(N)=O)C(=O)NCC(=O)N1CCC[C@H]1C(=O)N[C@@H](CO)C(=O)N[C@@H](CO)C(=O)NCC(=O)N[C@@H](C)C(=O)N1CCC[C@H]1C(=O)N1CCC[C@H]1C(=O)N1CCC[C@H]1C(=O)N[C@@H](CO)C(N)=O)C(C)C) [Example 14]	460
Y[dA]EGTFISDYSILLDKK([AEEA-AEEA-γGlu-C20 diacid])HQQDFVNYLLAQGPSSGAPPPS-NH2 (N-terminus assumed; SMILES CC[C@H](C)[C@H](NC(=O)[C@H](CO)NC(=O)[C@H](Cc1ccc(O)cc1)NC(=O)[C@H](CC(=O)O)NC(=O)[C@H](CO)NC(=O)[C@@H](NC(=O)[C@H](Cc1ccccc1)NC(=O)[C@@H](NC(=O)CNC(=O)[C@H](CCC(=O)O)NC(=O)[C@@H](C)NC(=O)[C@@H](N)Cc1ccc(O)cc1)[C@@H](C)O)[C@@H](C)CC)C(=O)N[C@@H](CC(C)C)C(=O)N[C@@H](CC(C)C)C(=O)N[C@@H](CC(=O)O)C(=O)N[C@@H](CCCCN)C(=O)N[C@@H](CCCCNC(=O)COCCOCCNC(=O)COCCOCCNC(=O)CC[C@H](NC(=O)CCCCCCCCCCCCCCCCCCC(=O)O)C(=O)O)C(=O)N[C@@H](Cc1c[nH]cn1)C(=O)N[C@@H](CCC(N)=O)C(=O)N[C@@H](CCC(N)=O)C(=O)N[C@@H](CC(=O)O)C(=O)N[C@@H](Cc1ccccc1)C(=O)N[C@H](C(=O)N[C@@H](CC(N)=O)C(=O)N[C@@H](Cc1ccc(O)cc1)C(=O)N[C@@H](CC(C)C)C(=O)N[C@@H](CC(C)C)C(=O)N[C@@H](C)C(=O)N[C@@H](CCC(N)=O)C(=O)NCC(=O)N1CCC[C@H]1C(=O)N[C@@H](CO)C(=O)N[C@@H](CO)C(=O)NCC(=O)N[C@@H](C)C(=O)N1CCC[C@H]1C(=O)N1CCC[C@H]1C(=O)N1CCC[C@H]1C(=O)N[C@@H](CO)C(N)=O)C(C)C) [Example 15]	471
YXEGTXISDYSIXLDKKHQXDFVEXLLETGPSSGAPPPS (Aib2; Iva6; αMeL13; K17((2-[2-(2-Amino-ethoxy)-ethoxy]-acetyl)2-(γ-Glu)-CO-(CH2)18-CO2H); Aib20; 4-Pal25; C-terminal amide) [Example 75]	62.6
Y[Aib]EGTFISDYSI[αMeL]LDKIHQ[Aib]DFVEYK([AEEA-AEEA-γGlu-C20 diacid])LEQGPSSGAPPPS-NH2 (N-terminus assumed; SMILES CC[C@H](C)[C@H](NC(=O)[C@H](CCCCN)NC(=O)[C@H](CC(=O)O)NC(=O)[C@H](CC(C)C)NC(=O)[C@](C)(CC(C)C)NC(=O)[C@@H](NC(=O)[C@H](CO)NC(=O)[C@H](Cc1ccc(O)cc1)NC(=O)[C@H](CC(=O)O)NC(=O)[C@H](CO)NC(=O)[C@@H](NC(=O)[C@H](Cc1ccccc1)NC(=O)[C@@H](NC(=O)CNC(=O)[C@H](CCC(=O)O)NC(=O)C(C)(C)NC(=O)[C@@H](N)Cc1ccc(O)cc1)[C@@H](C)O)[C@@H](C)CC)[C@@H](C)CC)C(=O)N[C@@H](Cc1c[nH]cn1)C(=O)N[C@@H](CCC(N)=O)C(=O)NC(C)(C)C(=O)N[C@@H](CC(=O)O)C(=O)N[C@@H](Cc1ccccc1)C(=O)N[C@H](C(=O)N[C@@H](CCC(=O)O)C(=O)N[C@@H](Cc1ccc(O)cc1)C(=O)N[C@@H](CCCCNC(=O)COCCOCCNC(=O)COCCOCCNC(=O)CC[C@H](NC(=O)CCCCCCCCCCCCCCCCCCC(=O)O)C(=O)O)C(=O)N[C@@H](CC(C)C)C(=O)N[C@@H](CCC(=O)O)C(=O)N[C@@H](CCC(N)=O)C(=O)NCC(=O)N1CCC[C@H]1C(=O)N[C@@H](CO)C(=O)N[C@@H](CO)C(=O)NCC(=O)N[C@@H](C)C(=O)N1CCC[C@H]1C(=O)N1CCC[C@H]1C(=O)N1CCC[C@H]1C(=O)N[C@@H](CO)C(N)=O)C(C)C) [Example 92]	33.1
YXEGTXISDYSIXLDXKHQXDFVEXLLETGPSSGAPPPS (Aib2; Iva6; αMeL13; Orn16; K17((2-[2-(2-Amino-ethoxy)-ethoxy]-acetyl)2-(γ-Glu)-CO-(CH2)18-CO2H); Aib20; 4-Pal25; C-terminal amide) [Example 77]	84.1
